Test results published in US11512141B2, “Fibrinogen-like protein 2 (FGL2) monoclonal antibodies and their use in cancer detection and treatment” (Board of Regents, The University of Texas System, priority 2017, dated 2022).

Columns and labels:
[1] = system: CD39 and CD73 regulatory T cell expression; experiment: Blocking of CD39 and CD73 regulatory T cell expression; format: cell-based
Description: The present studies developed and characterized two anti-FGL2 monoclonal antibodies, F48 and F59. […] The effects of the anti-FGL2 antibodies were evaluated alone and in combination with other anti-cancer therapies such as anti-PDL1 antibody and chemotherapy on several mouse tumor models, including glioblastoma, melanoma, and lung cancer.

OT-I T cells = experiment: Activation-induced OT-I T cell proliferation; format: cell-based; details: OT-I T cells activated with αCD3/CD28, with or without OVA peptide
From the text: OT-I T cells were activated with αCD3/CD28 and then divided into different dishes to check the proliferation in the absence or presence of +OVA peptide (pep), absence or presence FGL2 mAb F48, and co-absence or presence of F48. Cell numbers were counted on different days.

glioma GL261 tumors = experiment: Mouse glioma GL261 tumor model, alone or with temozolomide; format: in vivo; details: 20 mg/kg TMZ + 200 μg antibody
Description: FIGS. 3A-3C: (FIG. 3A) Percent survival of glioma GL261 tumors treated with temozolomide (TMZ) in combination with IgG, F59, anti-PDL1, or F48. […] Western blot analysis of FLG2 expression with various antibodies. FGLS expression is reduced in tumors treated with anti-FGL2 antibodies. (FIG. 3C) Percent survival of mice inoculated with GL261 and treated with IgG control or F59.
Next, the effect of the combination of temozolomide (TMZ) and anti-PDL1+anti-FGL2 antibody was determined on the mouse glioma GL261 tumor model progression in vivo.
Percent survival of glioma GL261 tumors treated with temozolomide (TMZ) in combination with IgG, F59, anti-PDL1, or F48 (FIG. 3).

FGL2 = experiment: Cross-species binding of anti-FGL2 antibodies
From the text: In particular embodiments, the anti-FGL2 monoclonal antibodies provided herein are the F48 and F59 antibodies. […] Given that the combination of CD39 and CD73 degrade ATP, ADP, and AMP to adenosine, they can be viewed as “immunological switches” that shift ATP-driven pro-inflammatory immune cell activity toward an anti-inflammatory state mediated by adenosine. CD39 and CD73 both play a role in regulating the function of several immune cell types, including lymphocytes, neutrophils, monocytes/macrophages, dendritic cells, and endothelial cells (Antonioli et al., 2013).

GL261 glioblastoma cells = experiment: GL261 glioblastoma subcutaneous mouse model, M2 cell population in tumors; format: in vivo, mice; details: 100 μg antibody i.v. every 3 days, from 5-7 days after s.c. GL261 inoculation; vs IgG control
From the text: FIGS. 1A-1C: (FIG. 1A) FGL2 expression in normal brain and GBM tissue shown by immunohistochemistry. Increased staining is observed in the glioma tissues. (FIG. 1B) Flow cytometry analysis for the expression of F4/80 and CD206 in glioblastoma tumor cells treated with IgG control or F48 anti-FGL2 antibody. (FIG. 1C) Percentage of M2 macrophages in the glioblastoma tumors treated with IgG control or F48 anti-FGL2 antibody.
To screen for the anti-FGL2 antibody F48 function in mice, GL261 glioblastoma cells (1×10^5 in 30 μL) were injected into the back of mice by subcutaneous injection. The first treatment with antibody comprised 100 μg antibody by intravenous injection starting at about 5-7 days after tumor inoculation. The antibody treatment was repeated every 3 days and the mice were sacrificed at about 14-21 days.

B1: F48: anti-FGL2 monoclonal antibody of hybridoma clone F48; heavy chain SEQ ID NO:2, light chain SEQ ID NO:4 (antibody, V domains shown)
VH: MGWSCIILFLVATATGVHSQVQLQQPGAELVKPGASVKLSCKASGYTFASYWMQWVKQRPGQGLEWIGEIDPSDSYTNYNQKFKGKATLTVDTSSNTAYMQLSSLTSEDSAVYYCARNGNYYGSTYDYWGQGTTLTVSS
VL: MMSSAQFLGLLLLCFQGTRCDIQMTQTTSSLSASLGDRVTISCRASQDVSNYLNWYQQKPDGSVKLLIYYTSRLHSGVPSRFSGSGSGAHYSLTISNLEQEDIATYFCQQGNTLPPWTFGGGTKLEIK
[1]
  block CD39 and CD73 regulatory T cell expression: able to block CD39 and CD73 regulatory T cell expression
OT-I T cells
  activation-induced T cell growth (cell numbers): promote activation-induced T cell growth
Glioma GL261 tumors
  percent survival: significantly improve glioma survival
FGL2
  cross-species binding: share the property of cross-species binding
GL261 glioblastoma cells
  percentage of M2 cell population in the tumors: suppression of the percentage of M2 cell population in the tumors
